IntAct's records for PubMed 16183855

B1: Caspase-8 (Homo sapiens), Q14790 (parent)
chain: MDFSRNLYDIGEQLDSEDLASLKFLSLDYIPQRKQEPIKDALMLFQRLQEKRMLEESNLSFLKELLFRINRLDLLITYLNTRKEEMERELQTPGRAQISAYRVMLYQISEEVSRSELRSFKFLLQEEISKCKLDDDMNLLDIFIEMEKRVILGEGKLDILKRVCAQINKSLLKIINDYEEFSKERSSSLEGSPDEFSNGEELCGVMTISDSPREQDSESQTLDKVYQMKSKPRGYCLIINNHNFAKAREKVPKLHSIRDRNGTHLDAGALTTTFEELHFEIKPHDDCTVEQIYEILKIYQLMDHSNMDCFICCILSHGDKGIIYGTDGQEAPIYELTSQFTGLKCPSLAGKPKVFFIQACQGDNYQKGIPVETDSEEQPYLEMDLSSPQTRYIPDEADFLLGMATVNNCVSYRNPAEGTWYIQSLCQSLRERCPRGDDILTILTEVNYEVSNKDDKKNMGKQMPQPTFTLRKKLVFPSD

Variants of: B1
Conditions: with bcl2_human BCL2, P10415
Chain of bcl2_human BCL2, P10415 (P10415 whole entry): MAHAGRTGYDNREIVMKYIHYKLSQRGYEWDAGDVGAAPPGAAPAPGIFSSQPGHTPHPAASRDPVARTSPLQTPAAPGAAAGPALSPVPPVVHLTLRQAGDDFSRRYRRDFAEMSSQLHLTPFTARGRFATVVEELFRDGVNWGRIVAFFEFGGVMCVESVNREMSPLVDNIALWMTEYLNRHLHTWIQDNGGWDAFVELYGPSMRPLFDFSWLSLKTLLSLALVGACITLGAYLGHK

Variant | effect of a mutation on the interaction
MDFSRNLYDIGEQLDSEDLASLKFLSLDYIPQRKQEPIKDALMLFQRLQEKRMLEESNLSFLKELLFRINRLDLLITYLNTRKEEMERELQTPGRAQISAYRVMLYQISEEVSRSELRSFKFLLQEEISKCKLDDDMNLLDIFIEMEKRVILGEGKLDILKRVCAQINKSLLKIINDYEEFSKERSSSLEGSPDEFSNGEELCGVMTISDSPREQDSESQTLDKVYQMKSKPRGYCLIINNHNFAKAREKVPKLHSIRDRNGTHLDAGALTTTFEELHFEIKPHDDCTVEQIYEILKIYQLMDHSNMDCFICCILSHGDKGIIYGTDGQEAPIYELTSQFTGLKCPSLAGKPKVFFIQASQGDNYQKGIPVETDSEEQPYLEMDLSSPQTRYIPDEADFLLGMATVNNCVSYRNPAEGTWYIQSLCQSLRERCPRGDDILTILTEVNYEVSNKDDKKNMGKQMPQPTFTLRKKLVFPSD [C360S] | increasing interaction
